# ± gives the standard deviation.
# Assay: protein stability index of a GFP-peptide fusion (GPS, HEK-293T) (PSI 1-6); higher = more stable
# Details: c terminus: a fixed tail appended
# 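Note: 24-mer peptide tiles fused after GFP, lentivirally expressed, FACS-sorted into six equal bins by GFP/DsRed ratio, decoded by Illumina sequencing, PSI is the read-weighted mean bin number.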
sequence,measurement,setting,value
WSQQIEESTTVVTTQSAEVGAAET [KRT18],protein stability index,treatment: DMSO,5.5 ± 0.21
same,protein stability index,"treatment: MLN4924 1 uM, 8 h",5.42 ± 0.14
APGDLSATEPATCFPSTQKPTEPS [FBF1],protein stability index,treatment: DMSO,5.22 ± 0.22
same,protein stability index,"treatment: MLN4924 1 uM, 8 h",5.343 ± 0.051
NLLDVYSSQGVATPAITVSNSCPA [TFE3],protein stability index,treatment: DMSO,3.4 ± 0.15
same,protein stability index,"treatment: MLN4924 1 uM, 8 h",3.34 ± 0.22
ASVSSHRFFGPNAEISQPPALSQL [TCF25],protein stability index,treatment: DMSO,3.35 ± 0.46
same,protein stability index,"treatment: MLN4924 1 uM, 8 h",3.29 ± 0.35
DKEVRAASTEADKRLSRFDIEMSM [NLN],protein stability index,treatment: DMSO,4.39 ± 0.32
same,protein stability index,"treatment: MLN4924 1 uM, 8 h",4.74 ± 0.32
IKVKPKRVGIFLDYEAGTLSFYNV [TRIM39],protein stability index,treatment: DMSO,2.54 ± 0.54
same,protein stability index,"treatment: MLN4924 1 uM, 8 h",2.61 ± 0.48
NIDIQNGFLLRYAVIKSNHSYCRM [ASB7],protein stability index,treatment: DMSO,2.57 ± 0.38
same,protein stability index,"treatment: MLN4924 1 uM, 8 h",2.54 ± 0.36
ELLDEKLLARGTMQPFNYVTLQCL [FEM1A],protein stability index,treatment: DMSO,2.56 ± 0.41
same,protein stability index,"treatment: MLN4924 1 uM, 8 h",2.44 ± 0.57
AARKKYNLLQDSSTSDSDLTCDSS [C18orf25],protein stability index,treatment: DMSO,4.96 ± 0.21
same,protein stability index,"treatment: MLN4924 1 uM, 8 h",4.89 ± 0.23
APGPSRIADYLLLPLAEREHVSRA [TRIB1],protein stability index,treatment: DMSO,3 ± 0.46
same,protein stability index,"treatment: MLN4924 1 uM, 8 h",3.38 ± 0.77
ASFYACRLDKHLYVIGGRNETGYL [KLHL14],protein stability index,treatment: DMSO,2.7 ± 0.54
same,protein stability index,"treatment: MLN4924 1 uM, 8 h",2.54 ± 0.95
QAEKRAAEKVSEARKRKNRRLKQA [ATP6V1G1],protein stability index,treatment: DMSO,5.47 ± 0.51
same,protein stability index,"treatment: MLN4924 1 uM, 8 h",5.33 ± 0.41
LNVRSEEQVFNAVMAWVKYSIQER [KLHL20],protein stability index,treatment: DMSO,2.54 ± 0.77
same,protein stability index,"treatment: MLN4924 1 uM, 8 h",2.42 ± 0.23
AALEAAGEGLNVIQQTTRYFSTPQ [NANOGP8],protein stability index,treatment: DMSO,3.3 ± 0.16
same,protein stability index,"treatment: MLN4924 1 uM, 8 h",3.31 ± 0.25
SRIQEWYEFQIPYICPDYQSYFKT [KRT36],protein stability index,treatment: DMSO,2.29 ± 0.31
same,protein stability index,"treatment: MLN4924 1 uM, 8 h",2.17 ± 0.36
KQFHNEVLKAHNEYRQKHGVPPLK [GLIPR2],protein stability index,treatment: DMSO,3.79 ± 0.19
same,protein stability index,"treatment: MLN4924 1 uM, 8 h",3.72 ± 0.17
ELFDKLSLRFNGRVLFIKDVIGDE [KCTD10],protein stability index,treatment: DMSO,2.08 ± 0.22
same,protein stability index,"treatment: MLN4924 1 uM, 8 h",2.82 ± 0.59
SALEEAFRRFAVHGDARATGREMH [TPPP],protein stability index,treatment: DMSO,3.22 ± 0.38
same,protein stability index,"treatment: MLN4924 1 uM, 8 h",3.12 ± 0.12
QGWVREHCPESGEEAVILLEDLER [ZSCAN9],protein stability index,treatment: DMSO,4.36 ± 0.12
same,protein stability index,"treatment: MLN4924 1 uM, 8 h",4.7 ± 0.28
RRKRTYWNDSCGEDMEASDYELED [WEE1],protein stability index,treatment: DMSO,4.37 ± 0.3
same,protein stability index,"treatment: MLN4924 1 uM, 8 h",4.92 ± 0.27
LLHLAVNSNTPVDDFHTNDVCSFP [FEM1B],protein stability index,treatment: DMSO,2.85 ± 0.25
same,protein stability index,"treatment: MLN4924 1 uM, 8 h",2.74 ± 0.12
ESTPVGTVVGLFNVRDRDSGRNGE [PCDHGC5],protein stability index,treatment: DMSO,4.92 ± 0.33
same,protein stability index,"treatment: MLN4924 1 uM, 8 h",4.89 ± 0.31
KRITASEALKHPWICQRSTVASMM [CAMK2D],protein stability index,treatment: DMSO,2.61 ± 0.05
same,protein stability index,"treatment: MLN4924 1 uM, 8 h",2.67 ± 0.27
VGRIANTYNLTEVDKYVNSFVLKN [KLHL13],protein stability index,treatment: DMSO,2.64 ± 0.32
same,protein stability index,"treatment: MLN4924 1 uM, 8 h",2.85 ± 0.45
QITVKALPKPPGTPVVTESTATSI [PTPRD],protein stability index,treatment: DMSO,4.62 ± 0.29
same,protein stability index,"treatment: MLN4924 1 uM, 8 h",4.61 ± 0.091
ENFEDVGHSTDAREMSKTFIIGEL [CYB5A],protein stability index,treatment: DMSO,3.95 ± 0.4
same,protein stability index,"treatment: MLN4924 1 uM, 8 h",3.89 ± 0.29
LVRETDELRRNHCFQDFKEEKPQE [ELOA2],protein stability index,treatment: DMSO,4.28 ± 0.24
same,protein stability index,"treatment: MLN4924 1 uM, 8 h",4.41 ± 0.28
TVTLTVAVADSIPQVLADLGSFES [PCDHGA10],protein stability index,treatment: DMSO,2.28 ± 0.32
same,protein stability index,"treatment: MLN4924 1 uM, 8 h",2.11 ± 0.093
IDALLEFDVHPNELTNGVINAAFM [SNAP91],protein stability index,treatment: DMSO,2.39 ± 0.38
same,protein stability index,"treatment: MLN4924 1 uM, 8 h",2.32 ± 0.36
ILAQQPDRLRDEELAELEDALRNL [TRADD],protein stability index,treatment: DMSO,5.29 ± 0.22
same,protein stability index,"treatment: MLN4924 1 uM, 8 h",4.94 ± 0.17
ALSKHFIPYNAKFLGSTEVEQPKG [GULP1],protein stability index,treatment: DMSO,3.19 ± 0.23
same,protein stability index,"treatment: MLN4924 1 uM, 8 h",3.55 ± 0.2
RLLALIYLAHASDVLENAFAPLLD [GOLPH3],protein stability index,treatment: DMSO,2.65 ± 0.48
same,protein stability index,"treatment: MLN4924 1 uM, 8 h",2.7 ± 0.71
LFVLLSVVCVLLNLAGFILGCQGA [FAM189A2],protein stability index,treatment: DMSO,3.15 ± 0.38
same,protein stability index,"treatment: MLN4924 1 uM, 8 h",3.25 ± 0.61
KPQDSSQPSDRLMTEKQQEEAEWE [CEP70],protein stability index,treatment: DMSO,5.59 ± 0.4
same,protein stability index,"treatment: MLN4924 1 uM, 8 h",5.45 ± 0.46
SGEEFYMLTRRVLQLETVLEGVVS [PKD2L1],protein stability index,treatment: DMSO,2.17 ± 0.45
same,protein stability index,"treatment: MLN4924 1 uM, 8 h",2.56 ± 0.17
ATVWSSNVGRVHRVAKKLQSGLVW [ALDH8A1],protein stability index,treatment: DMSO,2.81 ± 0.87
same,protein stability index,"treatment: MLN4924 1 uM, 8 h",2.24 ± 0.96
HELLLGSLQQQHQADLELIESAHR [FBF1],protein stability index,treatment: DMSO,4.66 ± 0.24
same,protein stability index,"treatment: MLN4924 1 uM, 8 h",4.35 ± 0.21
RTYRYSNRYCGGPGPPITDCEMNS [DYRK1B],protein stability index,treatment: DMSO,2.67 ± 0.23
same,protein stability index,"treatment: MLN4924 1 uM, 8 h",2.56 ± 0.11
QLYGDAPGEVVPSGESGLRRRGSD [TMEM40],protein stability index,treatment: DMSO,5.13 ± 0.18
same,protein stability index,"treatment: MLN4924 1 uM, 8 h",5.19 ± 0.25
KEATVPCTEILTEKKDTITNDSLS [MIA2],protein stability index,"treatment: MLN4924 1 uM, 8 h",5.49 ± 0.15
TLPTLPAKVYVGVKQEIAEMRIPA [NCF4],protein stability index,treatment: DMSO,3.36 ± 0.34
same,protein stability index,"treatment: MLN4924 1 uM, 8 h",3.7 ± 0.39
LQNEAQKRESFLKYKCLLQQLYYT [IQUB],protein stability index,treatment: DMSO,2.16 ± 0.43
same,protein stability index,"treatment: MLN4924 1 uM, 8 h",2.24 ± 0.21
QLVLRTKEAFDTIQEQKVVLEENG [SASS6],protein stability index,treatment: DMSO,4.45 ± 0.23
same,protein stability index,"treatment: MLN4924 1 uM, 8 h",4.64 ± 0.46
QPGAGFGMPPAGTGMPMMPQQPVM [SNAP91],protein stability index,treatment: DMSO,3.71 ± 0.26
same,protein stability index,"treatment: MLN4924 1 uM, 8 h",3.84 ± 0.3
QVLPDSESLPRSEIDEKVTDLVQF [MAGEA10],protein stability index,treatment: DMSO,5.03 ± 0.3
same,protein stability index,"treatment: MLN4924 1 uM, 8 h",4.99 ± 0.35

# Reference: the supplement of paper PMC10567573
